This note sets out measurements from patent US20220251236A1 (Boehringer Ingelheim, published 2022).

In test [1] the target is T1, trypsin inhibitor from glycine max soybean (Glycine max (soybean)).
T1 construct: also called Tryp
The test is described as follows: SPR (Biacore T200), trypsin inhibitor on CM5 chip, sample at 1 µM. The source says: To prepare the surface for the non-specific binding experiment, chicken egg white lysozyme and trypsin inhibitor from glycine max soybean were coupled manually to a series S CM5 chip with the surface density of 3000-5000 RU using the amine coupling kit according to the manufacture instructions.

Another test addresses T2, Human CD3 E+G HuFc-6xHis (human).
T2 construct: also called hu CD3εγ-Fc
The test can be described thus: SPR (ProteOn XPR36), HuCD3E_HuCD3G-Fc amine-coupled, bispecific as analyte, Example 4B. Put shortly: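 SPR kinetics with the bispecific constructs flowed as analyte over a directly amine-coupled (pH 4.5 acetate) human CD3εγ-Fc surface. Association runs 600 s and dissociation 1800 s, at 30 μl/min in PBS-T-EDTA.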

For another test, the target named is T3, EGF1+2.
T3 construct: also called Hu DLL3 EGF1+2 on HEK293 cells
T3 membrane-anchored DLL3 subdomain construct: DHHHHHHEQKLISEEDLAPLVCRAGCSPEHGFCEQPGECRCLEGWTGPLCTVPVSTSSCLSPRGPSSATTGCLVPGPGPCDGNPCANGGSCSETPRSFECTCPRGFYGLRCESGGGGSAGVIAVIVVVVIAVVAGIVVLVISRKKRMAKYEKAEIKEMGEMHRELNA
The test can be described thus: flow cytometry on HEK293 cells expressing the DLL3 subdomain construct, PE anti-human secondary, control: secondary antibody only. Put shortly: (§1)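 Binders tested on HEK293 cells displaying the DLL3 subdomain construct; bound molecules detected by flow cytometry using PE-conjugated anti-human secondary antibody. Negative control: cells with secondary antibody only.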

Another test deals with T4, EGF2+3.
T4 construct: also called Hu DLL3 EGF2+3 on HEK293 cells
T4 membrane-anchored DLL3 subdomain construct: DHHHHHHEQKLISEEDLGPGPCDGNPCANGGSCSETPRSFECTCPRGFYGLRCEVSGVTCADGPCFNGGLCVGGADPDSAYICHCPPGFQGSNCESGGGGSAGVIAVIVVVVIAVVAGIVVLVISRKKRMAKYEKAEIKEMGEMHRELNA
Described as above. Put shortly:
as §1

The target in a further test is T5, EGF5+6.
T5 construct: also called Hu DLL3 EGF5+6 on HEK293 cells
T5 membrane-anchored DLL3 subdomain construct: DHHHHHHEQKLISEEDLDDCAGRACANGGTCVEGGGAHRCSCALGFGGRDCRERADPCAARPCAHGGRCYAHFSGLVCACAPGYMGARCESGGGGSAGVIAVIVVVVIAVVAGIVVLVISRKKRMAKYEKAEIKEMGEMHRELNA
The description is as above. Put shortly:
as §1

For test [2], the target named is T6, EGF6+MEMBRANE PROXIMAL PEPTIDE.
T6 construct: also called Hu DLL3 EGF6+membrane proximal peptide on HEK293 cells
T6 membrane-anchored DLL3 subdomain construct: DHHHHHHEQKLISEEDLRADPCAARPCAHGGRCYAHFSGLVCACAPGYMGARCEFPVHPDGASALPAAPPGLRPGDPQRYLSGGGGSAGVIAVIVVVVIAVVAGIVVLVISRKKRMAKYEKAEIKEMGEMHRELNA
Described as above. Put shortly: as §1

The target in the next test is T7, EGF4+5.
T7 construct: also called Hu DLL3 EGF4+5 on HEK293 cells
T7 membrane-anchored DLL3 subdomain construct: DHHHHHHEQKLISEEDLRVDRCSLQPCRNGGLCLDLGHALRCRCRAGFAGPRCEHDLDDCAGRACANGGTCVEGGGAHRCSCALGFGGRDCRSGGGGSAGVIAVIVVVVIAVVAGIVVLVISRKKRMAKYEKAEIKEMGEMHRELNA
The test is described as follows: flow cytometry on HEK293 cells expressing the DLL3 subdomain construct, 1.6 nM binder, PE anti-human secondary, control: secondary antibody only. As for the experimental part:
DLL3/CD3 binding proteins were produced by transient transfection of CHO-E cells with the pTT5 vectors carrying the chain-encoding genes, as described in Example 2. […] Bound molecules were detected with PE-conjugated anti-human secondary antibody (Sigma-Aldrich, #P8047). As negative control, cells were incubated with secondary antibody only.
The samples were measured by flow-cytometry. […] The sequences of the epitope domains are listed in Example 5, Table 3.

T2 sequence (chain, as listed by the source limits assumed): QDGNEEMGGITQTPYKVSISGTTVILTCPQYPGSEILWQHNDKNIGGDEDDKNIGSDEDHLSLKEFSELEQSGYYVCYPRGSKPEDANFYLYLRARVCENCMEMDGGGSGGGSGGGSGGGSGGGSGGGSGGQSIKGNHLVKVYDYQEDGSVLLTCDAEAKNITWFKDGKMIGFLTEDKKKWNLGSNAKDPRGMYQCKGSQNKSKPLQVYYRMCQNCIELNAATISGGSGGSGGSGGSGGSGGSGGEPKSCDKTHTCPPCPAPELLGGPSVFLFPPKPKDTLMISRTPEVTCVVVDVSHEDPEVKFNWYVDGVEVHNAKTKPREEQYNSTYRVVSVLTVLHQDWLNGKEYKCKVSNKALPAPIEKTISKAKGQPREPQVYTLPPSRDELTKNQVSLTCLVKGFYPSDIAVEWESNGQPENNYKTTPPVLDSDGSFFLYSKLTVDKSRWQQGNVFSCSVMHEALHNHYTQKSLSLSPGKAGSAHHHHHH
T1 sequence (P01070 25-205): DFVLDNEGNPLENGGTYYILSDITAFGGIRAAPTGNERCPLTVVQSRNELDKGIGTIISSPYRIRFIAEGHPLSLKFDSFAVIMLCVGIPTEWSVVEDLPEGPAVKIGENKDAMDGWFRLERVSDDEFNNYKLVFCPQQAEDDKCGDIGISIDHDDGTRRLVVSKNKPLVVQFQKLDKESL

B1: DLL3#8/CD3#1 (bispecific antibody, human IgG1, kappa, lambda, L234A L235A)
chain 1: not shown
chain 2: EAVVTQEPSLTVSPGGTVTLTCRSSTGAVTTSNYANWVQEKPGQLPRGLIGGTNKRAPWVPARFSGSLLGGKAALTLSGAQPEDEAEYFCALWYSNLWVFGGGTKLTVLGQPKAAPSVTLFPPSSEELQANKATLVCLISDFYPGAVKVAWKADGSPVNTGVETTTPSKQSNNKYAASSYLSLTPEQWKSHRSYSCQVTHEGSTVEKTVAPAECSGGGGSEGKSSGSGSESKSTEGKSSGSGSESKSTGGGGSEVQLVESGGGLVQPGGSLKLSCAASGFTFNTYAMNWVRQAPGKGLEWVARIRSKYNNYATYYADSVKDRFTISRDDSKNTAYLQMNNLKTEDTAVYYCVRHGNFGNSYVSWFAYWGQGTLVTVSAASTKGPSVFPLAPSSKSTSGGTAALGCLVKDYFPEPVTVSWNSGALTSGVHTFPAVLQSSGLYSLSSVVTVPSSSLGTQTYICNVNHKPSNTKVDKRVEPKSCDKTHTCPPCPAPEAAGGPSVFLFPPKPKDTLMISRTPEVTCVVVDVSHEDPEVKFNWYVDGVEVHNAKTKPREEQYNSTYRVVSVLTVLHQDWLNGKEYKCKVSNKALPAPIEKTISKAKGQPREPQVYTLPPSREEMTKNQVSLSCAVKGFYPSDIAVEWESNGQPENNYKTTPPVLDSDGSFFLVSKLTVDKSRWQQGNVFSCSVMHEALHNRFTQKSLSLSPG
notes: Heterodimer of one DLL3 chain and one CD3 chain (scFab-Fc, knob-in-hole)
On to B1, for which the “Non-specific binding (RU)” value in test [1] came out at 18 RU. The same molecule registered a Kd with Human CD3 E+G HuFc-6xHis of 2 nM. Besides, the binding result is recorded as “no binding (tested: 1.6 nM)” in the test with EGF1+2; “no binding (tested: 1.6 nM)” with EGF2+3; “no binding (tested: 1.6 nM)” in the test with EGF5+6; “no binding (tested: 1.6 nM)” in test [2]; “binds” with EGF4+5.
